For one substance, Kd results are on record in US6576419.

In the assay the target is anti-hCG monoclonal antibody from Organon Teknika, Boxtel, the Netherlands. The assay can be described thus: competition: hCG displaces FpepT from anti-hCG Mab, fluorescence at 590 nm, fit to exchange model (K1).

“human chorionic gonadotrophin (hCG) (from UniProt P01215 25-116; P0DN86 21-165) (ligand)” gave a Kd of 0.49 nM.
